This is an account of results in patent US20210032299A1 (Eli Lilly, published 2021).

The chains are these.
T1: human glucose-dependent insulinotropic polypeptide (GIP) receptor (human, UniProt P48546 22-466)
T1 construct: whole, on cells; Assayed as crude membranes of stably transfected CHO cells; also called hGIPR; human GIP receptor
T1 sequence (looked up): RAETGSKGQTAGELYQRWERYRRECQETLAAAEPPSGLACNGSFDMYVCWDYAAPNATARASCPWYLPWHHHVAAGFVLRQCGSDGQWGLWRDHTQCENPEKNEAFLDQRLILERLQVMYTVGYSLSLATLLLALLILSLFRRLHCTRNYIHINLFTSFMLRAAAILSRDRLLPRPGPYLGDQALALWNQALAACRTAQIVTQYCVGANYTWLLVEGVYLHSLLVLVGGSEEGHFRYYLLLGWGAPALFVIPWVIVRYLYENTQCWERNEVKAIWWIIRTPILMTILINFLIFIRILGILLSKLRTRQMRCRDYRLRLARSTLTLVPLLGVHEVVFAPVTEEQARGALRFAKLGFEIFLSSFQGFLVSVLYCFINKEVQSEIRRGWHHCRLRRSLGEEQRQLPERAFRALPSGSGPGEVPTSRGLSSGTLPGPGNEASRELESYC

B1: Example 55 (peptide)
peptide: YXEGTXISDYSIXLDKKHQXDFVEXLLAGGPSSGAPPPS
modifications: Aib2; Iva6; αMeL13; K17((2-[2-(2-Amino-ethoxy)-ethoxy]-acetyl)2-(γ-Glu)-CO-(CH2)18-CO2H); Aib20; 4-Pal25; C-terminal amide
B2: Example 41 (peptide)
peptide: Y[Aib]EGT[αMeF]ISDYSIALDKK([AEEA-AEEA-γGlu-C20 diacid])HQ[Aib]DFVE[4Pal]LLETGPSSGAPPPS-NH2
modifications: N-terminus assumed
SMILES: CC[C@H](C)[C@H](NC(=O)[C@H](CO)NC(=O)[C@H](Cc1ccc(O)cc1)NC(=O)[C@H](CC(=O)O)NC(=O)[C@H](CO)NC(=O)[C@@H](NC(=O)[C@](C)(Cc1ccccc1)NC(=O)[C@@H](NC(=O)CNC(=O)[C@H](CCC(=O)O)NC(=O)C(C)(C)NC(=O)[C@@H](N)Cc1ccc(O)cc1)[C@@H](C)O)[C@@H](C)CC)C(=O)N[C@@H](C)C(=O)N[C@@H](CC(C)C)C(=O)N[C@@H](CC(=O)O)C(=O)N[C@@H](CCCCN)C(=O)N[C@@H](CCCCNC(=O)COCCOCCNC(=O)COCCOCCNC(=O)CC[C@H](NC(=O)CCCCCCCCCCCCCCCCCCC(=O)O)C(=O)O)C(=O)N[C@@H](Cc1c[nH]cn1)C(=O)N[C@@H](CCC(N)=O)C(=O)NC(C)(C)C(=O)N[C@@H](CC(=O)O)C(=O)N[C@@H](Cc1ccccc1)C(=O)N[C@H](C(=O)N[C@@H](CCC(=O)O)C(=O)N[C@@H](Cc1ccncc1)C(=O)N[C@@H](CC(C)C)C(=O)N[C@@H](CC(C)C)C(=O)N[C@@H](CCC(=O)O)C(=O)N[C@H](C(=O)NCC(=O)N1CCC[C@H]1C(=O)N[C@@H](CO)C(=O)N[C@@H](CO)C(=O)NCC(=O)N[C@@H](C)C(=O)N1CCC[C@H]1C(=O)N1CCC[C@H]1C(=O)N1CCC[C@H]1C(=O)N[C@@H](CO)C(N)=O)[C@@H](C)O)C(C)C
B3: Example 45 (peptide)
peptide: Y[Aib]EGTFISDYSI[αMeL]LDKK([AEEA-AEEA-γGlu-C20 diacid])HQ[Aib]DFVE[4Pal]LLETGPSSGAPPPS-NH2
modifications: N-terminus assumed
SMILES: CC[C@H](C)[C@H](NC(=O)[C@H](Cc1ccccc1)NC(=O)[C@@H](NC(=O)CNC(=O)[C@H](CCC(=O)O)NC(=O)C(C)(C)NC(=O)[C@@H](N)Cc1ccc(O)cc1)[C@@H](C)O)C(=O)N[C@@H](CO)C(=O)N[C@@H](CC(=O)O)C(=O)N[C@@H](Cc1ccc(O)cc1)C(=O)N[C@@H](CO)C(=O)N[C@H](C(=O)N[C@@](C)(CC(C)C)C(=O)N[C@@H](CC(C)C)C(=O)N[C@@H](CC(=O)O)C(=O)N[C@@H](CCCCN)C(=O)N[C@@H](CCCCNC(=O)COCCOCCNC(=O)COCCOCCNC(=O)CC[C@H](NC(=O)CCCCCCCCCCCCCCCCCCC(=O)O)C(=O)O)C(=O)N[C@@H](Cc1c[nH]cn1)C(=O)N[C@@H](CCC(N)=O)C(=O)NC(C)(C)C(=O)N[C@@H](CC(=O)O)C(=O)N[C@@H](Cc1ccccc1)C(=O)N[C@H](C(=O)N[C@@H](CCC(=O)O)C(=O)N[C@@H](Cc1ccncc1)C(=O)N[C@@H](CC(C)C)C(=O)N[C@@H](CC(C)C)C(=O)N[C@@H](CCC(=O)O)C(=O)N[C@H](C(=O)NCC(=O)N1CCC[C@H]1C(=O)N[C@@H](CO)C(=O)N[C@@H](CO)C(=O)NCC(=O)N[C@@H](C)C(=O)N1CCC[C@H]1C(=O)N1CCC[C@H]1C(=O)N1CCC[C@H]1C(=O)N[C@@H](CO)C(N)=O)[C@@H](C)O)C(C)C)[C@@H](C)CC
B4: Example 35 (peptide)
peptide: Y[Aib]EGT[αMeL]ISDYSIALDKK([AEEA-AEEA-γGlu-C20 diacid])HQ[Aib]EFVNYLLATGPSSGAPPPS-NH2
modifications: N-terminus assumed
SMILES: CC[C@H](C)[C@H](NC(=O)[C@H](CO)NC(=O)[C@H](Cc1ccc(O)cc1)NC(=O)[C@H](CC(=O)O)NC(=O)[C@H](CO)NC(=O)[C@@H](NC(=O)[C@](C)(CC(C)C)NC(=O)[C@@H](NC(=O)CNC(=O)[C@H](CCC(=O)O)NC(=O)C(C)(C)NC(=O)[C@@H](N)Cc1ccc(O)cc1)[C@@H](C)O)[C@@H](C)CC)C(=O)N[C@@H](C)C(=O)N[C@@H](CC(C)C)C(=O)N[C@@H](CC(=O)O)C(=O)N[C@@H](CCCCN)C(=O)N[C@@H](CCCCNC(=O)COCCOCCNC(=O)COCCOCCNC(=O)CC[C@H](NC(=O)CCCCCCCCCCCCCCCCCCC(=O)O)C(=O)O)C(=O)N[C@@H](Cc1c[nH]cn1)C(=O)N[C@@H](CCC(N)=O)C(=O)NC(C)(C)C(=O)N[C@@H](CCC(=O)O)C(=O)N[C@@H](Cc1ccccc1)C(=O)N[C@H](C(=O)N[C@@H](CC(N)=O)C(=O)N[C@@H](Cc1ccc(O)cc1)C(=O)N[C@@H](CC(C)C)C(=O)N[C@@H](CC(C)C)C(=O)N[C@@H](C)C(=O)N[C@H](C(=O)NCC(=O)N1CCC[C@H]1C(=O)N[C@@H](CO)C(=O)N[C@@H](CO)C(=O)NCC(=O)N[C@@H](C)C(=O)N1CCC[C@H]1C(=O)N1CCC[C@H]1C(=O)N1CCC[C@H]1C(=O)N[C@@H](CO)C(N)=O)[C@@H](C)O)C(C)C
B5: Example 49 (peptide)
peptide: Y[Aib]EGTFISDYSI[αMeL]LDKK([AEEA-AEEA-γGlu-C18 diacid])HQ[Aib]DFVE[4Pal]LLAGGPSSGAPPPS-NH2
modifications: N-terminus assumed
SMILES: CC[C@H](C)[C@H](NC(=O)[C@H](Cc1ccccc1)NC(=O)[C@@H](NC(=O)CNC(=O)[C@H](CCC(=O)O)NC(=O)C(C)(C)NC(=O)[C@@H](N)Cc1ccc(O)cc1)[C@@H](C)O)C(=O)N[C@@H](CO)C(=O)N[C@@H](CC(=O)O)C(=O)N[C@@H](Cc1ccc(O)cc1)C(=O)N[C@@H](CO)C(=O)N[C@H](C(=O)N[C@@](C)(CC(C)C)C(=O)N[C@@H](CC(C)C)C(=O)N[C@@H](CC(=O)O)C(=O)N[C@@H](CCCCN)C(=O)N[C@@H](CCCCNC(=O)COCCOCCNC(=O)COCCOCCNC(=O)CC[C@H](NC(=O)CCCCCCCCCCCCCCCCC(=O)O)C(=O)O)C(=O)N[C@@H](Cc1c[nH]cn1)C(=O)N[C@@H](CCC(N)=O)C(=O)NC(C)(C)C(=O)N[C@@H](CC(=O)O)C(=O)N[C@@H](Cc1ccccc1)C(=O)N[C@H](C(=O)N[C@@H](CCC(=O)O)C(=O)N[C@@H](Cc1ccncc1)C(=O)N[C@@H](CC(C)C)C(=O)N[C@@H](CC(C)C)C(=O)N[C@@H](C)C(=O)NCC(=O)NCC(=O)N1CCC[C@H]1C(=O)N[C@@H](CO)C(=O)N[C@@H](CO)C(=O)NCC(=O)N[C@@H](C)C(=O)N1CCC[C@H]1C(=O)N1CCC[C@H]1C(=O)N1CCC[C@H]1C(=O)N[C@@H](CO)C(N)=O)C(C)C)[C@@H](C)CC

Starred links: 1 amine or outer side, 2 acyl side, 3 side chain; linkers in the order of their positions; H or OH if unused. Non-standard residues stand in square brackets, D forms with d. Groups on a side chain read outwards from the residue. No end group written: not given here. *: point of attachment. C20 diacid = O=C(O)CCCCCCCCCCCCCCCCCCC(=O)*; C18 diacid = O=C(O)CCCCCCCCCCCCCCCCC(=O)*; γGlu = O=C(O)[C@H](CCC(=O)[*:2])N[*:1]; αMeF = C[C@](N)(Cc1ccccc1)C(=O)O; 4Pal = N[C@@H](Cc1ccncc1)C(=O)O; αMeL = CC(C)C[C@](C)(N)C(=O)O; AEEA = NCCOCCOCC(=O)O; Aib = CC(C)(N)C(=O)O

One assay has as its target T1, human glucose-dependent insulinotropic …. Briefly: SPA, displacement of [125I]-GIP from hGIPR membranes, 0.1% bacitracin. Background: Displacement assays read how much labelled ligand stays bound in the presence of the test substance.
The Ki is a measure of affinity in units of concentration, obtained from inhibition or displacement. The low end stands for a stronger hold on the target, the high end for a looser hold on the target. B1: affinity was put at a Ki of 0.0331 nM.
With B2, the Ki amounted to 0.143 nM.
In turn, B3 displayed a Ki of 0.0663 nM.
B4 registered a Ki of 0.0351 nM.
On to B5, for which the Ki was determined as 0.0512 nM.

In another assay the target is T2, human glucagon receptor (human, UniProt P47871 26-477).
T2 construct: whole, on cells; Assayed as crude membranes of stably transfected HEK293 cells; also called hGcgR; GcgR
T2 sequence (P47871 26-477): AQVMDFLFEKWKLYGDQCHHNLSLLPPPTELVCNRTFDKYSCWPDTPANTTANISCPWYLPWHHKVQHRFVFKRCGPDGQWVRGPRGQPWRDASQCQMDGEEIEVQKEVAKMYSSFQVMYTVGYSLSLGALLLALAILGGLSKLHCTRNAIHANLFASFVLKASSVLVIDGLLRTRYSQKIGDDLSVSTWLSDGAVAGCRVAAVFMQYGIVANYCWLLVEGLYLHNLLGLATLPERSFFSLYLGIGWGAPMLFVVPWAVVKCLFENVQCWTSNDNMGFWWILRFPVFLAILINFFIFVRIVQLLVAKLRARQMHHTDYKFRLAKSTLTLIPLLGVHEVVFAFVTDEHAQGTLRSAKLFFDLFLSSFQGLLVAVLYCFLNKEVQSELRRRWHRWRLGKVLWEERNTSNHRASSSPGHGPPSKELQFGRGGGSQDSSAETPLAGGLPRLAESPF
Briefly: SPA, displacement of [125I]-Gcg from hGcgR membranes, 0.1% bacitracin. The procedure: The binding buffer contains 25 mM 4-(2-hydroxyethyl)-1-piperazineethanesulfonic acid (HEPES), pH 7.4, 2.5 mM CaCl₂), 1 mM MgCl₂, 0.1% (w/v) bacitracin (Research Products), 0.003% (w/v) Polyoxyethylenesorbitan monolaurate (TWEEN®-20), and Roche Complete™ Protease Inhibitors without EDTA. […] Plates are sealed and mixed on a plate shaker (setting 6) for 1 minute and read with a PerkinElmer Trilux MicroBeta® scintillation counter after 12 hours of incubation/settling time at room temperature.
Data are analyzed using four-parameter (curve maximum, curve minimum, […], Hill slope) nonlinear regression routines (Genedata Screener, version 12.0.4, Genedata AG, Basal, Switzerland). […] Values for Kᵢ are reported as the geometric mean, with error expressed as the standard error of the mean (SEM) and n is equal to the number of independent replicates (determined in assays performed on different days).
B2 yielded a Ki of 758 nM.
Still for that read-out and setting: the same measure for B3: 660 nM.

The next assay addresses T3, human GLP-1 receptor (human, UniProt P43220 24-463).
T3 construct: whole, on cells; Assayed as crude membranes of stably transfected HEK293 cells; also called hGLP1R; hGLP-1R
In words: SPA, displacement of [125I]-GLP-1 from hGLP-1R membranes, 0.1% bacitracin. The protocol: The binding buffer contains 25 mM HEPES, pH 7.4, 2.5 mM CaCl₂, 1 mM MgCl₂, 0.1% (w/v) bacitracin, 0.003% (w/v) TWEEN®-20, and Roche Complete™ Protease Inhibitors without EDTA.
Data are analyzed using four-parameter (curve maximum, curve minimum, […], Hill slope) nonlinear regression routines (Genedata Screener, version 12.0.4, Genedata AG, Basal, Switzerland). […] Values for Kᵢ are reported as the geometric mean, with error expressed as the standard error of the mean (SEM) and n is equal to the number of independent replicates (determined in assays performed on different days). Geometric Means are calculated as follows: […]
In the case of B1, the Ki came out at 262 nM.
The molecule B4 gave a Ki of 177 nM.
With B5, affinity was put at a Ki of 596 nM.
